Here are results for 39 sequences from the supplement of paper PMC9732359.

± gives the uncertainty stated by the source.

The nature of this data set: protein stability index of a GFP-peptide fusion (yeast GPS) (PSI 1-4); higher = more stable; sorted into four equal gates, so the index is relative within each strain. Summed up:
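Peptides tiling yeast proteins in 17-residue segments were fused downstream of GFP, with Cherry expressed from the same plasmid. As a pooled library in yeast, mid-log cultures grown in leucine-free medium were sorted into four equal gates by GFP/Cherry fluorescence ratio. Gate plasmids were PCR-amplified and Illumina-sequenced, and barcodes linked reads to strains. Each peptide received a protein stability index equal to the sum of each gate's read frequency times its gate number.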

As for SEGFEPTFSTHAQLLLS [PRP8], the protein stability index by setting is: (doa10∆) 1.96 ± 0.038; (pdr5∆) 2.08 ± 0.037; (san1∆) 1.66 ± 0.048; (ubr1∆) 1.97 ± 0.034.
On to HELSRAELEELEEFEFK [SMD2], for which the protein stability index runs as follows: (doa10∆) 3.26 ± 0.072; (pdr5∆) 3.3 ± 0.071; (san1∆) 3.42 ± 0.059; (ubr1∆) 3.45 ± 0.055.
On to DPQDVFNYNIFMHDPSV [SIR2], for which the protein stability index worked out at 2.66 ± 0.08 (doa10∆), 2.02 ± 0.074 (pdr5∆), 1.35 ± 0.12 (san1∆) and 2.69 ± 0.089 (ubr1∆).
Consider YIQRRLVKALEDIMVHY [RPO21], for which the protein stability index is, setting by setting: (doa10∆) 1.77 ± 0.049; (pdr5∆) 2.11 ± 0.051; (san1∆) 1.4 ± 0.075; (ubr1∆) 2.05 ± 0.055.
For the sequence ETHPDNSNKQAVAILAD [BRR2], the protein stability index runs as follows: (doa10∆) 2.78 ± 0.053; (pdr5∆) 2.93 ± 0.049; (san1∆) 2.81 ± 0.045; (ubr1∆) 2.98 ± 0.038.
On to PNRLVKELQYDNEQNLE [PRE2], for which the protein stability index worked out at 2.97 ± 0.099 (pdr5∆), 2.8 ± 0.094 (san1∆) and 3.08 ± 0.073 (ubr1∆).
For the sequence PEYLAMYGLTMEWPKDM [ITC1], the protein stability index runs as follows: (doa10∆) 2.45 ± 0.074; (pdr5∆) 2.34 ± 0.11; (san1∆) 2.23 ± 0.14; (ubr1∆) 2.14 ± 0.072.
On to KSLAMEHKSQVVLYNYY [CSN12], for which the protein stability index is, setting by setting: (doa10∆) 1.19 ± 0.053; (pdr5∆) 1.34 ± 0.071; (san1∆) 1.32 ± 0.11; (ubr1∆) 1.55 ± 0.035.
Take LFSLEKPNLNYFKSILL [SWI1]: the protein stability index was 1.38 ± 0.056 (doa10∆), 1.59 ± 0.055 (pdr5∆), 1.62 ± 0.082 (san1∆) and 1.86 ± 0.051 (ubr1∆).
Consider YIEEKHPTIYESLPQYV [POP4], for which the protein stability index turned out to be 2.33 ± 0.044 (doa10∆), 2.39 ± 0.048 (pdr5∆), 1.91 ± 0.052 (san1∆) and 2.06 ± 0.045 (ubr1∆).
On to NNDVFTIGPYRARKDRM [SSN3], for which the protein stability index runs as follows: (doa10∆) 3.67 ± 0.27; (pdr5∆) 3.11 ± 0.26; (san1∆) 3.43 ± 0.14; (ubr1∆) 3.32 ± 0.13.
Regarding TLSFNFSQKANKTKAVD [YOR098C/NUP1], the protein stability index is 2.03 ± 0.085 (doa10∆), 1.55 ± 0.059 (pdr5∆), 1.84 ± 0.1 (san1∆) and 1.71 ± 0.057 (ubr1∆).
For RSLEKVNNSVSKTGSVD [SSN2], in that order: 2.38 ± 0.11, 3.53 ± 0.15, 3.36 ± 0.14 and 3.37 ± 0.11.
As for ESELSLLEETQAKLKKN [SMC4], the protein stability index (doa10∆) is 2.7 ± 0.17, the protein stability index (pdr5∆) worked out at 3.37 ± 0.2, the protein stability index (san1∆) was found to be 2.88 ± 0.23 and the protein stability index (ubr1∆) is 3.11 ± 0.14.
As to IFNSNKAKIIPGNGKHA [SIR4], the protein stability index is, setting by setting: (doa10∆) 2.34 ± 0.11; (pdr5∆) 3.13 ± 0.2; (san1∆) 1.9 ± 0.17; (ubr1∆) 2.2 ± 0.093.
In turn, ASSSAKLIEKKSAYANT [SMC2] returned a protein stability index (doa10∆) of 2.82 ± 0.1, a protein stability index (pdr5∆) of 2.55 ± 0.055, a protein stability index (san1∆) of 2.73 ± 0.079 and a protein stability index (ubr1∆) of 2.79 ± 0.042.
For TFTQLVSSSLYERRFGP [PUP3], the protein stability index by setting is: (doa10∆) 2.79 ± 0.12; (pdr5∆) 2.94 ± 0.16; (san1∆) 2.73 ± 0.12; (ubr1∆) 2.94 ± 0.092.
On to LRSKLFQFKLLQSNSKL [SMC4], for which the protein stability index amounted to 1.84 ± 0.056 (doa10∆), 1.79 ± 0.053 (pdr5∆), 1.59 ± 0.079 (san1∆) and 2.23 ± 0.037 (ubr1∆).
For the sequence AALRTVKSLVDNMITGV [RPL9A], the protein stability index reads like this: (doa10∆) 2.5 ± 0.091; (pdr5∆) 3.17 ± 0.076; (san1∆) 2.99 ± 0.071; (ubr1∆) 3.03 ± 0.075.
The like results for KMIILDKLLKRLKEKGS [ISW2] were, in that order, 1.58 ± 0.049, 1.32 ± 0.061, 1.35 ± 0.12 and 1.44 ± 0.055.
With DDDEVDYSEIQRSRRKF [DSN1], the protein stability index turned out to be 2.66 ± 0.1 (doa10∆), 3.66 ± 0.23 (pdr5∆), 3.04 ± 0.2 (san1∆) and 2.75 ± 0.16 (ubr1∆).
In the case of EFQPSGNVTELYGTAIG [PRE5], the protein stability index by setting is: (doa10∆) 2.15 ± 0.069; (pdr5∆) 2.8 ± 0.07; (san1∆) 1.98 ± 0.067; (ubr1∆) 1.57 ± 0.041.
For MFAYAKEHEPCIIFMDE [RPT4], in that order: 2.34 ± 0.043, 2.32 ± 0.05, 2.24 ± 0.065 and 2.4 ± 0.043.
For the sequence GKETIARVTGGMKVKAD [RPS14B], the protein stability index reads like this: (doa10∆) 1.42 ± 0.1; (pdr5∆) 1.24 ± 0.096; (san1∆) 1.85 ± 0.11; (ubr1∆) 2.6 ± 0.11.
REIHNEAESQLRAAQQQ [FAS2] gave a protein stability index (doa10∆) of 2.91 ± 0.088, a protein stability index (pdr5∆) of 2.36 ± 0.07, a protein stability index (san1∆) of 2.86 ± 0.076 and a protein stability index (ubr1∆) of 2.91 ± 0.053.
In the case of SQHGQGNNPSWVNNPKK [YDL088C/ASM4], the protein stability index (doa10∆) was determined as 3.2 ± 0.14 and the protein stability index (pdr5∆) was 3.52 ± 0.16.
With LKSIESLKLENSDLEGK [SMC2], the protein stability index reads like this: (doa10∆) 3.07 ± 0.13; (pdr5∆) 2.8 ± 0.099; (san1∆) 3.39 ± 0.17; (ubr1∆) 2.99 ± 0.12.
For the sequence KVAQLRQTGPAKINEVY [NSL1], the protein stability index is 2.97 ± 0.14 (doa10∆), 3.04 ± 0.15 (pdr5∆), 2.84 ± 0.1 (san1∆) and 3.58 ± 0.11 (ubr1∆).
As for LIENGASVRIKDKFNQI [NAS6], the protein stability index runs as follows: (pdr5∆) 3.12 ± 0.18; (ubr1∆) 3.27 ± 0.065.
Consider LSSDEKRELLKRYRLKE [RPB5], for which the protein stability index by setting is: (doa10∆) 3.08 ± 0.2; (pdr5∆) 3.27 ± 0.17; (ubr1∆) 3.52 ± 0.14.
Consider FELIELVTPKSFLFDVL [NUT1], for which the protein stability index (doa10∆) came to 1.92 ± 0.25, the protein stability index (san1∆) was 1.08 ± 0.16 and the protein stability index (ubr1∆) came out at 1.06 ± 0.12.
As for VDNSPTTESNSRLKALN [YLR335W/NUP2], the protein stability index is, setting by setting: (doa10∆) 3.18 ± 0.07; (pdr5∆) 3.12 ± 0.057; (san1∆) 3.11 ± 0.058; (ubr1∆) 2.97 ± 0.059.
For QGDVEQIAAQSPVELSR [SMC1], in that order: 2.66 ± 0.087, 2.92 ± 0.067, 3.08 ± 0.063 and 2.83 ± 0.073.
Turning to IPSLQNNIEENLRLLNS [ECM29], the protein stability index (doa10∆) is 3.13 ± 0.065, the protein stability index (pdr5∆) came out at 3.17 ± 0.061, the protein stability index (san1∆) amounted to 3.34 ± 0.055 and the protein stability index (ubr1∆) amounted to 3.25 ± 0.061.
In the case of AGNKVGQSEASLLNLLN [RPP0], the protein stability index turned out to be 3.03 ± 0.12 (doa10∆), 2.25 ± 0.095 (pdr5∆), 2.67 ± 0.1 (san1∆) and 2.95 ± 0.12 (ubr1∆).
In turn, TTIGDTTDKNTTDDKSM [BRN1] had a protein stability index (doa10∆) of 3.24 ± 0.082, a protein stability index (pdr5∆) of 3.33 ± 0.059, a protein stability index (san1∆) of 3.44 ± 0.044 and a protein stability index (ubr1∆) of 3.27 ± 0.043.
Regarding GWYHSGPKLRASDLKIN [RPN8], the protein stability index came out at 1.57 ± 0.036 (doa10∆), 1.95 ± 0.035 (pdr5∆), 1.59 ± 0.058 (san1∆) and 2.06 ± 0.035 (ubr1∆).
For RARGPMQVLTRQPVEGR [RPB2], in that order: 2.88 ± 0.2, 2.36 ± 0.21, 2.79 ± 0.11 and 2.98 ± 0.24.
YIEDFLLVIGGNQRKIL [YJR042W/NUP85] had a protein stability index (doa10∆) of 1.59 ± 0.051, a protein stability index (pdr5∆) of 1.86 ± 0.05, a protein stability index (san1∆) of 1.62 ± 0.078 and a protein stability index (ubr1∆) of 1.71 ± 0.042.
